In the DeepSol protein solubility set:

Test: soluble on expression in E. coli; label from the status in PepcDB or PDB records

Sequence	soluble on expression in E. coli
MPFCPEEFYCRITQNIESLNNIAKIQHAANTDYLTDLANRRAFFRSAESRIKEYINKKVPYCLAMIDVDFFKKVNDTYGHDSGDQVLKVIALYMRKHFGAGLTARLGGEEFAVLLHGLDADYLHNKLDDFRREIAVSSIPAGDTSISITLSLGVVFDSEDELSKQMNEADNALYAAKENGRNQIVVFGAELDDLEHHHHHH	not soluble
MQRYLWQQADGKRHVYDTARHRVQAGRPFTALCGETVTPQTERGDLTAGLWFDGECPVCTIALAKALGWPVREISDLAHRFDWSPALITRLAEVLHCSFGEVVELTGARMVDA	not soluble
MTNEEPLPKKVRLSETDFKVMARDELILRWKQYEAYVQALEGKYTDLNSNDVTGLRESEEKLKQQQQESARRENILVMRLATKEQEMQECTTQIQYLKQVQQPSVAQLRSTMVDPAINLFFLKMKGELEQTKDKLEQAQNELSAWKFTPDR	soluble
MSNASSTSSGRSSRAEVLWADVLSHIPFVKRFTTPDSRKEQKVRILSKNEVDEEDGVQLEQLIQNQEVILCHSSSMNFHQQCRGSVVDFEYIEKKVKVTVSSESDFPIWEDTDIWMQALSTPTSSLYAIDANTSVNSELIEDESVVQEQKEQISERAPLRLSDDIEEFGDVLVDVIKKKTDTKNNVFTITLGLTGFARFHAEIQLSKESTYYLNFDDGYEDDLASLASEEDILSGYQTIQNVDELCDKIGELTVTDVCIKTWFDILHNYAYIRLIVTSAKRKLQHFKLLTGHHVIIQSATSDRDTVLAVVSRVMKDGIVLTLQGVKKQTKNFVFSKNELFTIQIDHNYEDRLQKLTGKEEEHENLRRELINSDSDIRLHRSWKSNGKQYATFTSKNDAFKKIPFNTKFLLGKCWEAEGVLEKKADFIFAIRVADKNFSTPSTMTFEIKFTRNLVRNSKDFELSKAFYYVDFDLAHFVESDHCYSLLNAKSVNGKPDETVVKSCPIDEDLVFSVFPFQCGRRAEERRRGYQESQREVQSSTKKPDVKVEKNVKLEAPEKQNKRKDTALNPKEKYCAQKLEKQLNDQTKTPKQKPKQETSAGIKRESTQRPCVIPRTFETSNSKDASNKVPLQSVSEPKILLQDTNSRCAQPRKAVSHEGLKSHQQENVLKHLDNKHKFLCFVNIAKRIENDNGNPLVELSIGFDENGGKVQQSPWPLGIRMLLTDGLEKTEVKIQGDVQDTNGETVTFMIQQQLSDLDFLNSYKPKKLLACFREHGHNLK	not soluble
GMAQNIYDQPDFFAGYSQLGRSIEGLDGAAEWPALRAMLPEVGGLRIVDLGCGFGWFCRWAHEHGASYVLGLDLSEKMLARARAAGPDTGITYERADLDKLHLPQDSFDLAYSSLALHYVEDVARLFRTVHQALSPGGHFVFSTEHPIYMAPARPGWAIDAEGRRTWPIDRYLVEGPRKTDWLAKGVVKHHRTVGTTLNALIRSGFAIEHVEEFCPTDAQITARPELAEELDRPMFLLVSARR	soluble
MNSCWAKGKLMCEGRPASGVKVKLMESDNSFLPGFLDRDDKMASGKADSNGEFNLSGSTKEITGIEPYLAVFHDCKDGITPCQRVLRINIPKSYANWGSSAEKTFNAGNLELAGKFPGETRSCFN	not soluble
MYKLDLPTLMDAFHKVFHVSMLRKCITHQENVISEPPPDLLENMMIVGMLIPNLLGVSSEMVGR	not soluble
MHCPFCDTEETKVIDSRLVSDGYQVRRRRECGHCHERFTTFEMAELIIPKIIKTDGTREPFNEDKLRSGIQHALEKRPVSADDVEKAINHIILQLRATGEREVPSKLVGKLAMNELKKLDKVAYIRFASVYLSFDDIDQFTIEIEKLKD	not soluble
DRCYNCGGLDHHAKECKLPPQPKKCHFCQSISHMVASCPLKAQQGPSAQG	soluble
MGSDKIHHHHHHMPVVDAAWEEWLSSNVARGCSPDSMIDAMVQAGFATDAARVAVHKTFGQNPANPAFAAAAATEAALAKAAPQTYQYDDPPVARGNLIRAYDRDVRVVMRCERPQVIVFADVLSPDECAEMIERSRHRLKRSTTVNPATGKEDVIRNRTSEGIWYQRGEDPFIERMDRRISSLMNWPVENGEGLQILHYGTTGEYRPHFDYFPPDQPGSAVHTAQGGQRVATLVIYLNDVPDGGETIFPEAGMSVAASQGGAVYFRYMNDRRQLDPLTLHGGAPVLAGDKWIMTKWMRERAYG	not soluble
MATVIHNPLKALGDQFYKEAIEHCRSYNSRLSAERSVRLPFLDSQTGVAQNNCYIWMEKRHRGPGLAPGQLYTYPARCWRKKRRLHPPEDPKLRLLEIKPEVELPLKKDGFTSESTTLEALLRGEGVEKKVDAREEESIQEIQRVLENDENVEEGNEEEDLEEDIPKRKDRTRGRARCPLPSLHCFSSLPSAVIDAKEWGGGGKWEATVAYRKKKIYPVHIFNMLEHHHHHH	not soluble
MPNILYKIDNQYPYFTKNEKKIAQFILNYPHKVVNMTSQEIANQLETSSTSIIRLSKKVTPGGFNELKTRLSKFLPKEVTQYNVELVDNESTISLKNKLHSRSKAAL	soluble
ILGPHHLDEYVRVWAEYDPAACGRIHYKDMYSLLRVISPPLGLGKKCPHRVACKRLLRMDLPVADDNTVHFNSTLMALIRTALDIKIAKGGADKQQMDAELRKEMMAIWPNLSQKTLDLLVTPHKSTDLTVGKIYAAMMIMEYYRQSKAKKLQAMREEQDRTPLMFQRMEPPSPTQEGGPGQNALPSTQLDPGGALMAHESGLKESPSWVTQRAQEMFQKTGTWSPE	not soluble
MSLNNPYIKMIGAHGTALGDIYGHVTLENFDNTDIYGTEINLVGQINIGETDFNLYGQVFDKSMPVWGETNTLLGLSWDKNYDNTYVQLAFAAHIVNATYKAFDSNFDEQGFNGGYAYLNISHDLSLFDQDFKFVWWQEFYFGRNEQYLELAGDMEDFGFNGQLRANWIINNNWSVGVSYRYAENNLGKKGYHDAFFYSVQYKFEGHHHHHH	not soluble
MSLSENEQFSQMEAKARARMKERGVEVSDIAELVFFLQKKYHPDLTIDECTLNVNRVLAKREVQNAILTGIELDVLAEQKKLSEPLQTMLEIDESLYGVDEVLAFSIVNIYGSIGFTNYGYIDKEKPGILKRLNDKSTGECHTFLDDIVGAISAAASSRLAHRARHTEEGGSHHHHHH	soluble
CKLCLGEYPVEQMTTIAQCQCIFCTLCLKQYVELLIKEGLETAISCPDAACPKQGHLQENEIECMVAAEIMQRYKKLQFER	soluble
MADVKEKINLLDVIPFRSENITAEKGSDGTVTIAFPRFKYEWMRRFLLPKGMSADIHVRLEDHGTAVWELIDGKRTVRRIIEELAEHFNYEENYESRITAYITQLQKDGFVKLVIEN	not soluble
MGSDKIHHHHHHMFVGASEFRLTDAEHGLSFPVLVMYPTRQLPSRHAFGPYLMDVSMNAPIAGGQHPLILVSHGSGGSHLLYRTMTAHLAQHGYVVAMIEHPGNNRVDNQFMGKVENLQYRPRHLRLTADALYGDAVLGPHLQAGRIGVIGHSMGGYTALALAGGTPWYPPEAFQPDYRGPAPAVVDVEHDDRVKALVLLAPATVWFMPEHALEDVDVPILMLSAEHDPYTPAWHGEIVRKGVRDPANVTSRCVKNAGHFSFLSPFPPKIKQGGALPTIDPEGFDRERFHEQLKQEILAYFNLRLKTAPA	not soluble
MSLKPSDAEEARTEAFLVKLREFLDTVDGSVIERAAQIPDEYVKGLAELGCFGLKIPSEYGGLNMSQVAYNRVLMMVTTVHSSLGALLSAHQSIGVPEPLKLAGTAEQKRRFLPRCAAGAISAFLLTEPDVGSDPARMASTATPIDDGQAYELEGVKLWTTNGVVADLLVVMARVPRSEGHRGGISAFVVEADSPGITVERRNKFMGLRGIENGVTRLHRVRVPKDNLIGREGDGLKIALTTLNAGRLSLPAIATGVAKQALKIAREWSVERVQWGKPVGQHEAVASKISFIAATNYALDAVVELSSQMADEGRNDIRIEAALAKLWSSEMACLVGDELLQIRGGRGYETAESLAARGERAVPVEQMVRDLRINRIFEGSSEIMRLLIAREAVDAHLTAAGDLANPKADLRQKAAAAAGASGFYAKWLPKLVFGEGQLPTTYREFGALATHLRFVERSSRKLARNTFYGMARWQASLEKKQGFLGRIVDIGAELFAISAACVRAEAQRTADPVEGEQAYELAEAFCQQATLRVEALFDALWSNTDSIDVRLANDVLEGRYTWLEQGEGHHHHHH	not soluble
MSLILVTGHRGFIGSHIYSYFNGNSEVYGFDIGDKLEDRRYDVIIHMAARGLIRKSIEFPYDYFQDDLSLVVRFLELARKNDSVFIFPSSGSTAEPTNPYSLAKKNAEEWIRLYGKLYGLKYYILRFFNIYGDGAKKGAVYLFTKAALSGEEAIVYGDGSHIRDFLYVGDVPITIERILNEKYRTGEYEVGSGKGTSVNDLISLIEKVTGKKIRTRHEDYIVPEASELVAKNTIVKNPTPLEVGVERVMEFILKDNEGHHHHHH	soluble
MVVTCPKCGAKNRLGTPPPGQVPVCGACKTPLPWVVEADEKGFAQEVAGAPLTLVDFFAPWCGPCRLVSPILEELARDHAGRLKVVKVNVDEHPGLAARYGVRSVPTLVLFRRGAPVATWVGASPRRVLEERLRPYLEGR	soluble
MRLTSKGRYAVTAMLDVALNSEAGPVPLADISERQGISLSYLEQLFSRLRKNGLVSSVRGPGGGYLLGKDASSIAVGEVISAVDESVDATRCQGKGGCQGGDKCLTHALWRDLSDRLTGFLNNLEHHHHHH	not soluble
MQGLTMDDISLSIARNMFHLQVYESDGVRFEDLFSKIMYYKSPDFQQVKPYGNIGDRKNDGFIKGQGVYYQVYAPEDASNNVLAAVNKIKDDFEGLRDYWHDICPIKKYYFVLNDKYKGSLPQLHKELIVLQSDFNLIDTGVIVAKDLERELFNLPDDMIRSVVGHLPDIDHEEYMFVSGFTCFISAWINFEKIARHKVFSAKQPNRPLFIGKVVNALVKNKIISRQDATFIKKITEVRNSLVHGVSMLVPKKNEIDMLIFITEKIKPAGVCRLD	not soluble
MSMPYDNEAKIKQAVILLQKIVNDTSVPRNIRRAATDAIRNLQDLGLSPAVRAANAIGILEDISQDPNMPTHARISIWNVVSILETVKD	not soluble
MSLDLQLYLSNLANQIDRETGIGDVPLVILLDDLSEAGSISELVNGALTCKYHKPYIIGTTNQPVKMTPNHGLHLSFRRMLTFSNNVEPANGFLVRYLRRKLVESDSDINANKEELLRVLDWVPKLWYHLHTFLEKHSTSDFLIGGPCFFLSCPIGIEDFRTWFIDLWNNSIIPYLQEGAKDGIKVHGQKAAWEDPVEWVRDTLPWPSAQQDDSTPSSLDSDPLMAMLLKLQEAANYIESPDRETILDPNLQATLEGHHHHHH	soluble
TEELHKIEDIIRIFNDCFSQEYNTRLAKGGDYPIYLPAYRAENNTPSDRPYHVILFAHGYYSSALHEIAHWLVAGTARRQLEDFGYWYEPDGRSAEQQREFETVEVKPQAIEWILATAADFRYFASADNLSGNAGDNSAFKQAVYQQVKIYANRGYLPKRAEKLRQALAKFYGTTDQINLANFEIT	not soluble
MWSCPTLNAPRAAQKWLPVRATPHLCVLHMSRLMLSSTLIDELSYVRKDQLETSALFELIAHRYERHSIAITANEPFSGWSDAMTVAAIDRLVHHSTIIEMNGESYRKRAAVARGASTQNANDEPEDPPNRSSLEHHHHHH	not soluble
